Experimental data from US20120230990A1 (MERCK SERONO, published 2012).
Changes are numbered by the printed parent chain. Names may count otherwise. “And” between values parts separate entries of the source, which are not always exact repeats. Equal values may be shown once.

T1: murine IL-22RA on cells (HEPA1-6 hepatoma cells, BaF3 cells transfected with murine IL-22RA and IL-10RB) (murine, UniProt Q80XZ4 16-581)
T1 sequence (looked up): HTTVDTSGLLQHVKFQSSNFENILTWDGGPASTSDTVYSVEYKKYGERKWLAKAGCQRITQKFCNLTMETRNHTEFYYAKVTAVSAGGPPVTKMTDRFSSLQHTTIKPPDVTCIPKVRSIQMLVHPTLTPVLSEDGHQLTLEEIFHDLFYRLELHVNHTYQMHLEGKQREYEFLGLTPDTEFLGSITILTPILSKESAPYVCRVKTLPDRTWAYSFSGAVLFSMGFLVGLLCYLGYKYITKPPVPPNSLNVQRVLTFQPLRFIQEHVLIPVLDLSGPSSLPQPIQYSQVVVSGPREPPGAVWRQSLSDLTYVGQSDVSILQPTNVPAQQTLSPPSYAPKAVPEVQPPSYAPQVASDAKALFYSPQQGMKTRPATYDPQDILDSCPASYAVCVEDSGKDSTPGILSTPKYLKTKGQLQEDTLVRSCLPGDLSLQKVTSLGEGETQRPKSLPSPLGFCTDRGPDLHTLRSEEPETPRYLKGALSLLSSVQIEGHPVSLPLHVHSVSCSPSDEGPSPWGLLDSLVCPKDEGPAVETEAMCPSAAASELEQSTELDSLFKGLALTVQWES

T2: human IL-22RA on cells (HepG2 hepatoma cells, normal human keratinocytes, BaF3 cells transfected with human … (human, UniProt Q8N6P7 16-574))
T2 sequence: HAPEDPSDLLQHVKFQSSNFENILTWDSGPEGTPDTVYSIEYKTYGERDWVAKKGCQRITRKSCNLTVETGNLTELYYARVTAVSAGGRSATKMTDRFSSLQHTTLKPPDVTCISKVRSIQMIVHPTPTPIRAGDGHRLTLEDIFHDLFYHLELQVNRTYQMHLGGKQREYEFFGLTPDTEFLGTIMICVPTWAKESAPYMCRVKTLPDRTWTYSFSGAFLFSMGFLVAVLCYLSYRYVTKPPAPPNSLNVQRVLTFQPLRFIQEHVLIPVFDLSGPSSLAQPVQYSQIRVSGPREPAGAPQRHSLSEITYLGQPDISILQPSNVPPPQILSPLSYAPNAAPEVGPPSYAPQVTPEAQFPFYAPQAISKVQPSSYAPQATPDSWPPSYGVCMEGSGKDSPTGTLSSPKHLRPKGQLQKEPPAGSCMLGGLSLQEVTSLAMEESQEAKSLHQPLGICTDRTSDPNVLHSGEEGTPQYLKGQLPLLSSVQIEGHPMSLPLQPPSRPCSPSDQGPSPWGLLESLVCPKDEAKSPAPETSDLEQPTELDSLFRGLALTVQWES

B1: mouse 280.46.3.4 (mouse anti-human IL-22RA monoclonal antibody from hybridoma 280.46.3.4, ATCC PTA-6284) (antibody, V domains shown)
VH: EVQLQQSGPELVRPGTSVKISCKASGYSLTADYMNWVKQSPEESLEWIGEINPSTGTTTYNQKFEAKATLTVDQSSNTAYLQLTSLTSEDSAVYYCARFDAYFDYWGQGTTVTVSS
VL: DIVMTQSPSSLAVSVGEKVTMSCKSSQSLLYSSNQKNCLAWYQQKPGQSPKLLIYWASSRESGVPDRFTGSGSGTDFTLTISSVKTEDLAVYYCQQYFSYPFTFGSGTKLEIKR
B2: human IL-22RA (recombinant, form not stated) (receptor)
chain: HAPEDPSDLLQHVKFQSSNFENILTWDSGPEGTPDTVYSIEYKTYGERDWVAKKGCQRITRKSCNLTVETGNLTELYYARVTAVSAGGRSATKMTDRFSSLQHTTLKPPDVTCISKVRSIQMIVHPTPTPIRAGDGHRLTLEDIFHDLFYHLELQVNRTYQMHLGGKQREYEFFGLTPDTEFLGTIMICVPTWAKESAPYMCRVKTLPDRTWT
notes: a soluble ECD is likely; also called hIL-22RA; human interleukin 22 receptor alpha
B3: humanized 280.46.3.4 antibody comprising 280.VH3-66-1 paired with 280.VK4-1-S, human IgG1/kappa (antibody, V domains shown)
VH: EVQLVESGGGLVQPGGSLRLSCAASGYSLTADYMNWVRQAPGKGLEWIGEINPSTGTTTYNQKFEARATLTVDQSKNTAYLQMNSLRAEDTAVYYCARFDAYFDYWGQGTLVTVSS
VL: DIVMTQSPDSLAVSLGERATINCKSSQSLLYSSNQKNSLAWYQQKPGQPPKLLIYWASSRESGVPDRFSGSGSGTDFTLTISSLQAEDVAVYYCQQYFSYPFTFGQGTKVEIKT
B4: humanized 280.46.3.4 antibody comprising 280.VH3-66-4 paired with 280.VK4-1-T, human IgG1/kappa (antibody, V domains shown)
VH: B3 VH with E65K, A66G, T71S
VL: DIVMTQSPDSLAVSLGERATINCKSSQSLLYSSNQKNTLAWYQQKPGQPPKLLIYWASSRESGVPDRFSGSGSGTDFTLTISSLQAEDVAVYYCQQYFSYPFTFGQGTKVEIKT
B5: humanized 280.46.3.4 antibody comprising 280.VH3-66-18 paired with 280.VK4-1-T, human IgG1/kappa (antibody, V domains shown)
VH: B3 VH with D32E, E65K, A66G, T71S
VL: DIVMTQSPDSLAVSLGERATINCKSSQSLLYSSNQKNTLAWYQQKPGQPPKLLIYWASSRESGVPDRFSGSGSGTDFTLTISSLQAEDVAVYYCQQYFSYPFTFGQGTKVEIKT
B6: Fab of D96E mutant: 280.VH3-66-4 with Asp to Glu at position 96, paired with 280.VK4-1-T (Fab, name in Kabat numbering, V domains shown)
VH: B3 VH with E65K, A66G, T71S, D100E
VL: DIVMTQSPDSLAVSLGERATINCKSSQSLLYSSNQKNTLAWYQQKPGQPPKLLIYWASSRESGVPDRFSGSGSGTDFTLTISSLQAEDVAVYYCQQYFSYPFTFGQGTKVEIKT
notes: NiNTA-purified Fab, which implies a His tag that is not described
B7: Fab of D32E mutant: 280.VH3-66-18 paired with 280.VK4-1-T (Fab, V domains shown)
VH: B3 VH with D32E, E65K, A66G, T71S
VL: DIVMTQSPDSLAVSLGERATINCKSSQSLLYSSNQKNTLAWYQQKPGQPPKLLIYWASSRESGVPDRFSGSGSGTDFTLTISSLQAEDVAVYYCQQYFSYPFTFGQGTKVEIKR
notes: NiNTA-purified Fab, which implies a His tag that is not described; also called version 18
B8: murine IL-22RA (recombinant, form not stated) (receptor, UniProt Q80XZ4 16-230, looked up)
chain: HTTVDTSGLLQHVKFQSSNFENILTWDGGPASTSDTVYSVEYKKYGERKWLAKAGCQRITQKFCNLTMETRNHTEFYYAKVTAVSAGGPPVTKMTDRFSSLQHTTIKPPDVTCIPKVRSIQMLVHPTLTPVLSEDGHQLTLEEIFHDLFYRLELHVNHTYQMHLEGKQREYEFLGLTPDTEFLGSITILTPILSKESAPYVCRVKTLPDRTWAYS
notes: also called mIL-22RA; mouse IL-22 receptor alpha

Tests used:
[1] = molecular target: T1, murine IL-22RA on cells (HEPA1-6 …); assay: cell-based or functional assay
[2] = molecular target: T2, human IL-22RA on cells (HepG2 hepatoma …); assay: cell-based or functional assay
[3] = molecular target: T3, 280.346.TSY (humanized anti-human IL-22RA antibody comprising 280.VH3-66-46 paired with 280.VK4-1-TSY, human …); assay: competitive ELISA: soluble competitor against coated human IL-22RA-ECD for biotinylated 280-346-TSY; soluble human IL-22RA as competitor
T3 construct: Produced in CHO cells; also called 280.VH3-66-46/VK4-1-TSY; 280.VH3-66.46 paired with 280.IGKV4-1-TSY
T3 sequence (VL, as listed by the source): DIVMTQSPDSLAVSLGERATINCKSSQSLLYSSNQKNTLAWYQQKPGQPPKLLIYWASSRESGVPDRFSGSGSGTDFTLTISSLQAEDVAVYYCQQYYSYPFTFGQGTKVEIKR
Method: (§1) FIG. 23 reports the results of a competitive ELISA done to measure the specificity of 280.346.TSY to human IL-22RA. Microtiter plates were coated with human IL-22RA-ECD (i.e. IL-22RA-Extra Cellular Domain). Biotinylated 280-346-TSY antibody was added to the plate in the presence of competitors: human interleukin 22 receptor alpha (hIL-22RA), human IL-22 binding protein (hIL-22BP), murine IL-22 receptor alpha (mIL-22RA), human IL-10 receptor alpha (hIL-10R) and human IL-20 receptor alpha (hIL-20R).
(§2) Specificity and binding affinity of 280.346.TSY was determined using a competitive ELISA. Microtiter plates were coated with human IL-22RA-ECD (i.e. IL-22RA-Extra Cellular Domain). Biotinylated 280-346-TSY antibody was added to the plate in the presence of competitors: human interleukin 22 receptor alpha (hIL-22RA), human IL-22 binding protein (hIL-22BP), mouse IL-22 receptor alpha (mIL-22RA), human IL-10 receptor alpha (hIL-10R) and human IL-20 receptor alpha (hIL-20R).

[4] = molecular target: B2; assay: Biacore, NiNTA-purified Fab
[5] = molecular target: T3, 280.346.TSY (humanized anti-human …); assay: competitive ELISA: soluble competitor against coated human IL-22RA-ECD for biotinylated 280-346-TSY; soluble murine IL-22RA as competitor
Method: as §1, §2

Binder: B1
IC50, proliferation assay in BaF3 cells transfected with murine IL-22RA and IL-10RB, cultured with recombinant murine IL-22 [1]: 849 pM and 1470 pM | IC50, STAT3 phosphorylation assay in human HepG2 hepatoma cells stimulated with recombinant human IL-22 [2]: 333 pM and 370 pM and 266 pM | IC50, STAT3 phosphorylation assay in normal human keratinocytes stimulated with recombinant human IL-22 [2]: 542 pM | IC50, proliferation assay in BaF3 cells transfected with human IL-22RA and IL-10RB, cultured with recombinant human IL-22 [2]: 545 pM and 587 pM

Binder: B2
IC50 [3]: 0.0182 nM

Binder: B3
IC50, proliferation assay in BaF3 cells transfected with murine IL-22RA and IL-10RB, cultured with recombinant murine IL-22 [1]: 693 pM | fold potency against the mouse parental antibody 280.46.3.4, proliferation of murine IL-22 receptor transfected BaF3 cells [1]: 2.1 fold | IC50, STAT3 phosphorylation assay in human HepG2 hepatoma cells stimulated with recombinant human IL-22 [2]: 258 pM | IC50, proliferation assay in BaF3 cells transfected with human IL-22RA and IL-10RB, cultured with recombinant human IL-22 [2]: 340 pM | fold potency against the mouse parental antibody 280.46.3.4, STAT3 phosphorylation assay in HepG2 cells [2]: 1.4 fold | fold potency against the mouse parental antibody 280.46.3.4, proliferation of human IL-22 receptor transfected BaF3 cells [2]: 1.7 fold

Binder: B4
IC50, proliferation of murine IL-22 receptor (IL-22RA and IL-10RB) transfected BaF3 cells [1]: 687 pM | fold potency against the mouse parental antibody 280.46.3.4, proliferation of murine IL-22 receptor transfected BaF3 cells [1]: 2.1 fold | IC50, STAT3 phosphorylation assay in human HepG2 hepatoma cells stimulated with recombinant human IL-22 [2]: 183 pM | IC50, proliferation of human IL-22 receptor (IL-22RA and IL-10RB) transfected BaF3 cells [2]: 334 pM | fold potency against the mouse parental antibody 280.46.3.4, STAT3 phosphorylation assay in HepG2 cells [2]: 1.8 fold | fold potency against the mouse parental antibody 280.46.3.4, proliferation of human IL-22 receptor transfected BaF3 cells [2]: 1.75 fold

Binder: B5
IC50, STAT3 phosphorylation assay in human HepG2 hepatoma cells [2]: 132 pM | fold potency against the mouse parental antibody 280.46.3.4, STAT3 phosphorylation assay in HepG2 cells [2]: ~3 fold

Binder: B6
fold reduction of affinity against parental unmutated D32 (280.VH3-66-4) [4]: ~500 fold

Binder: B7
fold decrease of the off rate against parental unmutated D32 (280.VH3-66-4) [4]: ~5 fold | fold increase of the on rate against parental unmutated D32 (280.VH3-66-4) [4]: ~2 fold

Binder: B8
IC50 [5]: 0.149 nM
